Test results published in patent US11464784B2, “Inhibition of aminocylase 3 (AA3) in the treatment of cancer” (THE REGENTS OF THE UNIVERSITY OF CALIFORNIA, priority 2017, dated 2022).

Substrate: CC(=O)C/C(C)=C/CC/C(C)=C/CC/C(C)=C/CC/C(C)=C/CN[C@@H](CS)C(=O)O
Experiment: Substrate kinetics of mouse AA3 (mAA3)
Type: biochemical
Conditions: other: substrate of mAA3

B1: mAA3 (Mus musculus) (protein)
chain: MSSLPGSREPLLRVAVTGGTHGNEMCGVYLARYWLQNPGELQRPSFSAMPVLANPAATAACCRYLDRDLNRSCTLTFLGSTATPDDPYEVKRARELNQLLGPKGTGQAFDFTLDLHNTTANTGVCLISESNISFNLHLCHYLQRQNPGMPCRLFLYEPAGTETFSVESISKNGICLEMGPQPQGVLRADLFSRMRALVASILDFIELFNQGMDLPAFEMDIYRNLGSVDFPRTADGDLAGTVHPQLQDHDFEPLRPGEPIFKLFSGEDVLYEGDSIVYPVFINEAAYYEKHVAFLKSEKIRVTVPALLRLTPRSTQTP
Km: 25 µM
